One block for each binder: values may come before it.
Biological target: Recombinant human caspase-9 (active) (human) (UniProt P55211)
Assay: enzyme inhibition assay (fluorogenic substrate cleavage); one unit of active recombinant human caspase incubated with various concentrations of peptide inhibitor in 100 mM NaCl, 50 mM HEPES, 10 mM DTT, 1 mM EDTA, 10% glycerol, 0.1% CHAPS, pH 7.4, 37°C, 30 min; then 200 μM substrate (Ac-DEVD-MCA for caspases-3 and -7, Ac-IETD-MCA for caspase-8, Ac-LEHD-MCA for caspase-9); apparent Ki = IC50/(1+[S]/Km)

Chain of Recombinant human caspase-9 (active) (human) (P55211 whole entry): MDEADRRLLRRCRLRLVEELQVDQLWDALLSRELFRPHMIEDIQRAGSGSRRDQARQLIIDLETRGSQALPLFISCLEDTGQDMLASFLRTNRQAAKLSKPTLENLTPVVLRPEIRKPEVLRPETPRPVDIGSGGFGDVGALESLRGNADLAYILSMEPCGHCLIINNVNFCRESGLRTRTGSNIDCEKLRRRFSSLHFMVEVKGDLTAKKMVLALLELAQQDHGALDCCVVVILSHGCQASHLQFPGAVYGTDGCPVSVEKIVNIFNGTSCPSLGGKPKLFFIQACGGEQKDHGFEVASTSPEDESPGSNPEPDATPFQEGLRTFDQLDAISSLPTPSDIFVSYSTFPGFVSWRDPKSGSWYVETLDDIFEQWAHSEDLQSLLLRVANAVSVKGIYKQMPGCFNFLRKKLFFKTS

Ki: > 200 nM
B1: Ac-DMQD-CHO (peptide)
peptide: Ac-DMQD-aldehyde
SMILES: CSCC[C@H](NC(=O)[C@H](CC(=O)O)NC(C)=O)C(=O)N[C@@H](CCC(N)=O)C(=O)N[C@H](C=O)CC(=O)O

Ki: 14.5 nM
B2: Ac-DQTD-CHO (peptide)
peptide: Ac-DQTD-aldehyde
SMILES: CC(=O)N[C@@H](CC(=O)O)C(=O)N[C@@H](CCC(N)=O)C(=O)N[C@H](C(=O)N[C@H](C=O)CC(=O)O)[C@@H](C)O

— PMC1931592
